Results from doi:10.1101/2023.02.23.529712.
No end group written: not given here.

Target: recombinant rat arrestin-2 (rat), P29066
Assay: MST + fluorescence polarisation

Sequence of recombinant rat arrestin-2 (rat), P29066 (P29066 whole entry): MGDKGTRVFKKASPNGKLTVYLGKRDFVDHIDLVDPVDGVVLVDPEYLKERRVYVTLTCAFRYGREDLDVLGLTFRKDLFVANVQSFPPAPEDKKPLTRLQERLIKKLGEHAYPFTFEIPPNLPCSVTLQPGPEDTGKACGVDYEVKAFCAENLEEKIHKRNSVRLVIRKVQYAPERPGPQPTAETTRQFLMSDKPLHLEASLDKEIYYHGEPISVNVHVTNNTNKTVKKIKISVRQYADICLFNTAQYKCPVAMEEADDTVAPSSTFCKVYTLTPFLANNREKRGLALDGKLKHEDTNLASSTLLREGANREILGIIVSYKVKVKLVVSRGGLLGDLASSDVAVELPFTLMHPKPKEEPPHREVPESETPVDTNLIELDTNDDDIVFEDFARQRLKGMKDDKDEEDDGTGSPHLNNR

Kd: 200 µM
B1: phosphomimetic GHSR C-terminus, Q92847 339-366 (domain or fragment)
chain: GFEPFSQRKLEELKDESSRAWTEEEINE
modifications: not fully specified
